Measured values as given in the supplement of paper PMC12764529.
± gives the half width of the 95% confidence interval.

Test: folding stability dG unfold from trypsin proteolysis; higher = more stable
Method in brief: (§1)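 Mini-proteins designed to be under 80 residues and free of cysteine were carried in a PA-tagged cDNA display construct and digested with trypsin and with chymotrypsin. Each protease was applied at 11 threefold-diluted concentrations, alongside a no-protease condition, before sequencing. K50 came from Bayesian fitting of the sequencing counts, and unfolding free energy was obtained by comparing it with a sequence-predicted unfolded-state K50 and a shared folded-state K50, for each protease separately or for both together. Designs were retained only if their AlphaFold2 dimer inter-PAE exceeded 15.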

| Sequence | folding stability dG unfold |
| --- | --- |
| GPMTVSTKTSTKTYFDPETGVETVVEPVTVTVTFPTSPTVTYTTTVTTTTKVERLPDGPLRTETTTTTTVSS [r1_296_JUSTAS] | -0.135 ± 0.17 kcal/mol |
| SAGGSAGGSAGGPEIITFRNPGNGVTLMVWRTPNNITVSIYNPDGPQKEIPIPPGEPIFSAGGSAGGSAGGS [r10_976_TrROS] | 0.833 ± 0.098 kcal/mol |
| SAGGMPLEHIAEITEVRTFPDGRKEIRLLVEDPEVAEEGHPELREEMAELLRRLFEEEGLEVRVVPGESAGG [r13_243_TrMRF] | 0.0715 ± 0.19 kcal/mol |
| SAGGSAKPVKVDTLVLTAPFESKEEAEKAVEEFAKAVAEKLPKDVKVEVEVKYDPETKTFTAVVKASAGGSA [r15_981_TrMRF] | 2.23 ± 0.093 kcal/mol |
| SAGGSAGGSHTIEIWIVKFPPDDFKGKTIEEMAKKFGDPDMPVEIVPIEITLPPDALKALLKNSAGGSAGGS [r12_178_TrROS] | 0.768 ± 0.033 kcal/mol |
| SAGGKPPKTVTVTLTLPDGVKITIEYNEETGEVTVTIEVFKDGKLVKTITITAPSLDEALEALKKLLSAGGS [r16_55_TrROS_Hall] | 3.25 ± 0.23 kcal/mol |
| SAGGSAGGSAGGMLKIKVYRFDKNGKLVEEEEIELPENVKEIVIKDEKTGKYYKVEIVDSAGGSAGGSAGGS [r10_970_TrROS_Hall] | 1.25 ± 0.053 kcal/mol |
| SAGGPKKITIHITEMYRNKNGPYYYRVEIRDGGKPKEYNFPFDSPDEMLDNIEKLADELGLKVEIEPFSAGG [r13_750_TrROS] | 1.55 ± 0.06 kcal/mol |
| SAGGSAGGSAIKAPPNSKIIKIEVKPLPNGDLLVEITIIDVPPDDSIGSGKYKILIKLEKGGSAGGSAGGSA [r18_273_TrMRF] | 2.81 ± 0.3 kcal/mol |
| SAGGSAGGMKPISRSTYTNPLNGTTITVTKYPETGEYVITLPDGTTYTVPKSVPITSVEEAIKNSAGGSAGG [r6_72_JUSTAS] | 0.32 ± 0.066 kcal/mol |
| SGSTTLKTTTIPEGPLTVETTISPDGVVTGTIYDPEGKKIADYTMTYTWTTLPNGEKRLETVTVTINLGLSA [r9_434_JUSTAS] | 1.9 ± 0.05 kcal/mol |
| SAGGSAGGSAGGVAVPKEGIEEFISQLPPDTVVTLYDPETGKDIKVTVSNGKVTISPEGSAGGSAGGSAGGS [r10_137_JUSTAS] | 1.29 ± 0.12 kcal/mol |
| SAGLSEIVKKLFPEEEIEIEVEERTLPGPPNIPVVEFDVRITFKDGRTFRARAIRYPDFVLIEVEPLEPSAG [r14_28_TrMRF] | 3.26 ± 0.11 kcal/mol |
| SDWKIVDIEREGNWYTITIQFKNPDGNPWMVTLYMPPNGPYRVEVYPPGDGKEREVRVPMDDIDEILDAISA [r9_91_TrROS] | 1.33 ± 0.053 kcal/mol |
| SAGGSAGGSASSTLRTVRFPPDTPLEEVKEALAAEFPDRDPNIKILEVRPEDGGLVVTVEVVSAGGSAGGSA [r18_360_JUSTAS] | 1.51 ± 0.033 kcal/mol |
| SAGGSAGGSAGLPVLRPLIIPGPSVLRILEVRLREDGSVEVISEETIPLPPPIPSPSELTSAGGSAGGSAGG [r11_843_TrMRF] | 0.763 ± 0.038 kcal/mol |
| SAGGSAGGSAGGSPLKIKIVEVKEHKNPDGKPRRRIMMRFPNGRTLHIDMNGNLEIMPASAGGSAGGSAGGS [r4_111_TrROS] | 0.0795 ± 0.19 kcal/mol |
| SAGGSAGGSAGDPGQELMFMWIWPWPNPDGQPWVRIFMWSVRVDDGKIKEIEPTTMWIPLSAGGSAGGSAGG [r11_35_TrROS] | 3.08 ± 0.17 kcal/mol |
| SAGGSAGGSAGIEAVVKELEELGYEVEATPEPDGSVVIEVTLKNGEKLTVRVGPFGGVEASAGGSAGGSAGG [r17_503_TrMRF] | 2.21 ± 0.14 kcal/mol |
| SAGGMSPEELASLSPEERRAVVEEALRERLARERPGAPPDFALEDVPVTVRDPATGTTTTVTVRLEAASAGG [r13_555_JUSTAS] | 0.384 ± 0.11 kcal/mol |
| SAGGSAGGMAKVKILKIKPVNTGEDGSKSVEIEVEFENPNPEVAKAFVEEIAKKLGFEEVEDTTSAGGSAGG [r6_317_TrMRF] | 0.43 ± 0.079 kcal/mol |

| Sequence | folding stability dG unfold |
| --- | --- |
| SAGGSAGGSAPYFVRIKIENPDNGKPHSIEIPPNMTPEQAKEMAEELAEMHGWKITDVEYFPSAGGSAGGSA [r18_322_TrROS] | 0.227 ± 0.088 kcal/mol |
| SAGGSAGGSAGGMKIKITVEVFDPNTGKVLKTEEFTSLEEAEKKVKEEDPNKVKVTVKEESAGGSAGGSAGG [r7_201_JUSTAS] | 0.805 ± 0.056 kcal/mol |
| SAGGSAGGEKKGKPPVKIVIKVRDVDTGETRTITLTIEPDMTVEEIRELLRALLPPGAEVEIVPSAGGSAGG [r6_440_TrROS_Hall] | 1.6 ± 0.052 kcal/mol |
| SAGGSAGGSAGGKKITIKNENGETFTVTEIVKYDEETKEFYIKVEVNGKTYLFKVNLEDLSAGGSAGGSAGG [r7_236_TrROS_Hall] | 1.81 ± 0.059 kcal/mol |
| SAGGSAGGSMSVTLVKVERDPANNTITVTIKLPSGETAFTKTVAPGTTVTITFPDGTVLTVTESAGGSAGGS [r12_441_JUSTAS] | 3.12 ± 0.078 kcal/mol |
| SAGGDTIMIPIRGKGSLEQAKEWAKEIAREFYREGWKNIKISVWVYDKENGEPVYRKEAEIPIKPGDSAGGS [r8_33_TrROS] | 1.63 ± 0.11 kcal/mol |
| SAGGNRIMFFFDTPEQAREIAKELAKNFPGYKLDVEVHTQEMKVKDPDNGEEQRYPMVMVEIEIKPPSAGGS [r16_828_TrROS] | 1.6 ± 0.049 kcal/mol |
| SAGGSAGGGTIEIEDPNGVKVEIEIDPDDGYTIIKAFMPDGWVITILMPPEGKIEIETFPLEPPSAGGSAGG [r6_415_TrROS] | 1.92 ± 0.26 kcal/mol |
| SAGGSAGGSAGGIKIERDPNYWVIEIEIPIYMPQPDPDGEIKEPKPIAPITITILIPPGGSAGGSAGGSAGG [r7_3_TrROS] | 2.09 ± 0.17 kcal/mol |
| PANVTYEFELADGYRVRVTLNPETGTATVEVEPVPERPPVAPVFIPRTLPEEEREALRRAAEEAGLEVVVGS [r1_242_TrMRF] | 2.42 ± 0.036 kcal/mol |
| SAGGSAGGGRRLLIEADSEELRELLEALPPEELKNVRVYGPGGVEFPAGEIEKYKYGPLLIEVPSAGGSAGG [r6_428_TrMRF] | 0.174 ± 0.099 kcal/mol |
| SAEVTSTFDPSTGILTVTVKLEDPETGKPIPAEEVAAEVEKEYPNSTILSIEPDPEGYVTITVKVPPELVSA [r9_87_JUSTAS] | 1.81 ± 0.075 kcal/mol |
| SAGGSAGGSAGMTIKVYDPKTGEKILEIEIDPSLTPEQLKALADELRKKLPPGARIEIVPSAGGSAGGSAGG [r11_1081_TrROS_Hall] | 4.56 ± 0.2 kcal/mol |
| SAGGEDGKWREQTFTIENPEDGKKAKIEIEYNPENGYASIEFPGNGKKIDVPFKSLEDILDAIKKIGISAGG [r13_439_TrROS] | -0.02 ± 0.074 kcal/mol |
| SAGYEIVKEIAEELGFPVEIDRIEYDPDHGTIKFTARMRPKDGKKYRVQIMIHVPPENGNVDIELEYVPSAG [r5_929_TrROS] | 2.09 ± 0.074 kcal/mol |
| SAGGSVEELRELARKLAEELGLEVVEVEVEEREDGKVTVTVTIKGPPKVEIKLEVTENEVKITEIKPSAGGS [r8_432_TrROS_Hall] | 3.36 ± 0.25 kcal/mol |
| SAGGSAGGSAGGGMRTVTTVSSFTFEKNGGEKFVTTTVVVPLYVPPRVFPPPENIELLLLSAGGSAGGSAGG [r17_454_JUSTAS] | 2.45 ± 0.33 kcal/mol |
| SAGMKPGETITIENLPEGAIIYNKNGEKVEKVKEVKVTVEDGKITIEVKLEDGSTKTFTVPLEDLKIVPSAG [r5_850_TrROS_Hall] | 1.61 ± 0.12 kcal/mol |
| SAGGSAGGSNYVVRIKIRYPDPDGKPIYEHTIDIPVPDEEITADELRKQLKPPGYEITDIEVLSAGGSAGGS [r12_611_TrROS] | 0.509 ± 0.028 kcal/mol |
| SAGMKIEIEIVKVEVKEVNGKKVIKVEIKVKVSAEELGLSEEELKEKLEEEVEELARELAEKLNVEVVPSAG [r5_333_TrROS_Hall] | 2.88 ± 0.36 kcal/mol |
| SAGGSAGGMKITVEEVKVEKKEDGSYRVRIRLKNGEVLELEFESLEEALAAAKKLGAEITEIEPSAGGSAGG [r6_84_TrROS_Hall] | 3.12 ± 0.058 kcal/mol |

Test: folding stability dG unfold from chymotrypsin proteolysis; higher = more stable
Method in brief: as §1

| Sequence | folding stability dG unfold |
| --- | --- |
| GPMTVSTKTSTKTYFDPETGVETVVEPVTVTVTFPTSPTVTYTTTVTTTTKVERLPDGPLRTETTTTTTVSS [r1_296_JUSTAS] | -0.305 ± 0.38 kcal/mol |
| SAGGSAGGSAGGPEIITFRNPGNGVTLMVWRTPNNITVSIYNPDGPQKEIPIPPGEPIFSAGGSAGGSAGGS [r10_976_TrROS] | 0.971 ± 0.36 kcal/mol |
| SAGGMPLEHIAEITEVRTFPDGRKEIRLLVEDPEVAEEGHPELREEMAELLRRLFEEEGLEVRVVPGESAGG [r13_243_TrMRF] | 0.187 ± 0.18 kcal/mol |
| SAGGSAKPVKVDTLVLTAPFESKEEAEKAVEEFAKAVAEKLPKDVKVEVEVKYDPETKTFTAVVKASAGGSA [r15_981_TrMRF] | 2.368 ± 0.018 kcal/mol |
| SAGGSAGGSHTIEIWIVKFPPDDFKGKTIEEMAKKFGDPDMPVEIVPIEITLPPDALKALLKNSAGGSAGGS [r12_178_TrROS] | 0.841 ± 0.061 kcal/mol |
| SAGGKPPKTVTVTLTLPDGVKITIEYNEETGEVTVTIEVFKDGKLVKTITITAPSLDEALEALKKLLSAGGS [r16_55_TrROS_Hall] | 4.19 ± 0.18 kcal/mol |
| SAGGSAGGSAGGMLKIKVYRFDKNGKLVEEEEIELPENVKEIVIKDEKTGKYYKVEIVDSAGGSAGGSAGGS [r10_970_TrROS_Hall] | 2.02 ± 0.11 kcal/mol |
| SAGGPKKITIHITEMYRNKNGPYYYRVEIRDGGKPKEYNFPFDSPDEMLDNIEKLADELGLKVEIEPFSAGG [r13_750_TrROS] | 2.16 ± 0.16 kcal/mol |
| SAGGSAGGSAIKAPPNSKIIKIEVKPLPNGDLLVEITIIDVPPDDSIGSGKYKILIKLEKGGSAGGSAGGSA [r18_273_TrMRF] | 3.1 ± 0.16 kcal/mol |
| SAGGSAGGMKPISRSTYTNPLNGTTITVTKYPETGEYVITLPDGTTYTVPKSVPITSVEEAIKNSAGGSAGG [r6_72_JUSTAS] | 1.32 ± 0.15 kcal/mol |
| SGSTTLKTTTIPEGPLTVETTISPDGVVTGTIYDPEGKKIADYTMTYTWTTLPNGEKRLETVTVTINLGLSA [r9_434_JUSTAS] | 2.55 ± 0.063 kcal/mol |
| SAGGSAGGSAGGVAVPKEGIEEFISQLPPDTVVTLYDPETGKDIKVTVSNGKVTISPEGSAGGSAGGSAGGS [r10_137_JUSTAS] | 1.02 ± 0.12 kcal/mol |
| SAGLSEIVKKLFPEEEIEIEVEERTLPGPPNIPVVEFDVRITFKDGRTFRARAIRYPDFVLIEVEPLEPSAG [r14_28_TrMRF] | 3.75 ± 0.065 kcal/mol |
| SDWKIVDIEREGNWYTITIQFKNPDGNPWMVTLYMPPNGPYRVEVYPPGDGKEREVRVPMDDIDEILDAISA [r9_91_TrROS] | 2.96 ± 0.038 kcal/mol |
| SAGGSAGGSASSTLRTVRFPPDTPLEEVKEALAAEFPDRDPNIKILEVRPEDGGLVVTVEVVSAGGSAGGSA [r18_360_JUSTAS] | 1.58 ± 0.031 kcal/mol |
| SAGGSAGGSAGLPVLRPLIIPGPSVLRILEVRLREDGSVEVISEETIPLPPPIPSPSELTSAGGSAGGSAGG [r11_843_TrMRF] | 0.994 ± 0.16 kcal/mol |
| SAGGSAGGSAGGSPLKIKIVEVKEHKNPDGKPRRRIMMRFPNGRTLHIDMNGNLEIMPASAGGSAGGSAGGS [r4_111_TrROS] | 0.176 ± 0.32 kcal/mol |
| SAGGSAGGSAGDPGQELMFMWIWPWPNPDGQPWVRIFMWSVRVDDGKIKEIEPTTMWIPLSAGGSAGGSAGG [r11_35_TrROS] | 3.774 ± 0.032 kcal/mol |
| SAGGSAGGSAGIEAVVKELEELGYEVEATPEPDGSVVIEVTLKNGEKLTVRVGPFGGVEASAGGSAGGSAGG [r17_503_TrMRF] | 2.2 ± 0.071 kcal/mol |
| SAGGMSPEELASLSPEERRAVVEEALRERLARERPGAPPDFALEDVPVTVRDPATGTTTTVTVRLEAASAGG [r13_555_JUSTAS] | 0.109 ± 0.14 kcal/mol |
| SAGGSAGGMAKVKILKIKPVNTGEDGSKSVEIEVEFENPNPEVAKAFVEEIAKKLGFEEVEDTTSAGGSAGG [r6_317_TrMRF] | 0.687 ± 0.15 kcal/mol |
